Results from patent publication US20260167721A1 (ABLEXIS, published 2026).

Legend:
[1] = molecular target: T1, CD3 on human donor PBMC / Pan T effector cells (human, UniProt P07766 23-207; P09693 23-182; P04234 22-171; P20963 22-164); test: cell-based or functional assay
[2] = molecular target: T1, CD3 on human donor PBMC / Pan T …; test: cell-based or functional assay; remark: listed apart in the source

T1 sequence (P07766 23-207, chain 1 of 4): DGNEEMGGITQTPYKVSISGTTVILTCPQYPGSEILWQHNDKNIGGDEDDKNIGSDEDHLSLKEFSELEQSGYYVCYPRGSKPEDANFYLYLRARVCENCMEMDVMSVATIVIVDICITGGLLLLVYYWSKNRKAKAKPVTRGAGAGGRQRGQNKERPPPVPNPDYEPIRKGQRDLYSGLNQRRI
T1 sequence (P09693 23-182, chain 2 of 4): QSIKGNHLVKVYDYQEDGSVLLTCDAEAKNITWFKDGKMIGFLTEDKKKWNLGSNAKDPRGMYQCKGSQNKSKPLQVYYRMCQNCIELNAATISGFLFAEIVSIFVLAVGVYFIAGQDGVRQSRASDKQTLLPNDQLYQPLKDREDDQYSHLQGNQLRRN
T1 sequence (P04234 22-171, chain 3 of 4): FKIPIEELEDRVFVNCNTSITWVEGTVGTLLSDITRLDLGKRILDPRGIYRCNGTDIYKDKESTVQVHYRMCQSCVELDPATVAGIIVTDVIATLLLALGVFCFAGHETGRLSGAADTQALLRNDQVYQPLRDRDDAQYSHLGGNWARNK
T1 sequence (P20963 22-164, chain 4 of 4): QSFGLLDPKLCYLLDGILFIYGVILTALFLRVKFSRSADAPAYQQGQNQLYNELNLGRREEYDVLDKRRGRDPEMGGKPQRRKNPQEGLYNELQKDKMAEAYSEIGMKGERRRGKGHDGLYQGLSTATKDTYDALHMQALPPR

B1: CD3 × CD33-BspAb71 (bispecific antibody)
chain 1: EVQLVESGGGLVKPGGSLRLSCAASGFTFSSYSMNWVRQAPGKCLEWVSSISRSSSYIYYADSVKGRFTLSRDNAKNSLYLQMNSLRGEDTAIYYCGRDGKGAIFLDYWGQGTLVTVSSGGGGSGGGGSGGGGSGGGGSSYELTQPPSVSVSPGQTARITCSGDALPKKYAYWYQQKSGQAPVLVIYEDSKRPSGIPERFSGSSSGTMATLTISGAQVEDEADYYCYSTHSSGNHRVFGCGTKLTVLDKTHTCPPCPAPEFEGGPSVFLFPPKPKDTLMISRTPEVTCVVVDVSHEDPEVKFNWYVDGVEVHNAKTKPREEQYNSTYRVVSVLTVLHQDWLNGKEYKCKVSNKALPASIEKTISKAKGQPREPQVYTLPPCREEMTKNQVSLWCLVKGFYPSDIAVEWESNGQPENNYKTTPPVLDSDGSFFLYSKLTVDKSRWQQGNVFSCSVMHEALHNHYTQKSLSLSPGK
chain 2: EVQLVQSGAEVKKPGSSVKVSCKASGYTITDSNIHWVRQAPGQSLEWIGYIYPYNGGTDYNQKFKNRATLTVDNPTNTAYMELSSLRSEDTAFYYCVNGNPWLAYWGQGTLVTVSSASTKGPSVFPLAPSSKSTSGGTAALGCLVKDYFPEPVTVSWNSGALTSGVHTFPAVLQSSGLYSLSSVVTVPSSSLGTQTYICNVNHKPSNTKVDKRVEPKSCDKTHTCPPCPAPEFEGGPSVFLFPPKPKDTLMISRTPEVTCVVVDVSHEDPEVKFNWYVDGVEVHNAKTKPREEQYNSTYRVVSVLTVLHQDWLNGKEYKCKVSNKALPASIEKTISKAKGQPREPQVCTLPPSREEMTKNQVSLSCAVKGFYPSDIAVEWESNGQPENNYKTTPPVLDSDGSFFLVSKLTVDKSRWQQGNVFSCSVMHEALHNRFTQKSLSLSPGK
chain 3: DIQLTQSPSTLSASVGDRVTITCRASESLDNYGIRFLTWFQQKPGKAPKLLMYAASNQGSGVPSRFSGSGSGTEFTLTISSLQPDDFATYYCQQTKEVPWSFGQGTKVEVKRTVAAPSVFIFPPSDEQLKSGTASVVCLLNNFYPREAKVQWKVDNALQSGNSQESVTEQDSKDSTYSLSSTLTLSKADYEKHKVYACEVTHQGLSSPVTKSFNRGEC
[1]
  Cytokine Release Assay (TNFα) Donor 0 gMFI max: 44100 gMFI
  Cytokine Release Assay (TNFα) Donor 1 gMFI max: 5470 gMFI
  Cytokine Release Assay (TNFα) Donor 2 EC50: 0.396 nM
  Cytokine Release Assay (TNFα) Donor 2 gMFI max: 16700 gMFI
  Cytokine Release Assay (TNFα) Donor 3 gMFI max: 28200 gMFI
[2]
  Cytokine Release Assay (IL2) Donor 0 EC50: 3.03 nM
  Cytokine Release Assay (IL2) Donor 0 gMFI max: 65500 gMFI
  Cytokine Release Assay (IL2) Donor 1 gMFI max: 24400 gMFI
  Cytokine Release Assay (IL2) Donor 2 EC50: 0.0725 nM
  Cytokine Release Assay (IL2) Donor 2 gMFI max: 30900 gMFI
  Cytokine Release Assay (IL2) Donor 3 EC50: 2.16 nM
  Cytokine Release Assay (IL2) Donor 3 gMFI max: 127000 gMFI

B2: CD3 × CD33-BspAb37 (bispecific antibody)
chain 1: not shown
chain 2: EVQLVQSGAEVKKPGSSVKVSCKASGYTITDSNIHWVRQAPGQSLEWIGYIYPYNGGTDYNQKFKNRATLTVDNPTNTAYMELSSLRSEDTAFYYCVNGNPWLAYWGQGTLVTVSSASTKGPSVFPLAPSSKSTSGGTAALGCLVKDYFPEPVTVSWNSGALTSGVHTFPAVLQSSGLYSLSSVVTVPSSSLGTQTYICNVNHKPSNTKVDKRVEPKSCDKTHTCPPCPAPEFEGGPSVFLFPPKPKDTLMISRTPEVTCVVVDVSHEDPEVKFNWYVDGVEVHNAKTKPREEQYNSTYRVVSVLTVLHQDWLNGKEYKCKVSNKALPASIEKTISKAKGQPREPQVCTLPPSREEMTKNQVSLSCAVKGFYPSDIAVEWESNGQPENNYKTTPPVLDSDGSFFLVSKLTVDKSRWQQGNVFSCSVMHEALHNRFTQKSLSLSPGK
chain 3: DIQLTQSPSTLSASVGDRVTITCRASESLDNYGIRFLTWFQQKPGKAPKLLMYAASNQGSGVPSRFSGSGSGTEFTLTISSLQPDDFATYYCQQTKEVPWSFGQGTKVEVKRTVAAPSVFIFPPSDEQLKSGTASVVCLLNNFYPREAKVQWKVDNALQSGNSQESVTEQDSKDSTYSLSSTLTLSKADYEKHKVYACEVTHQGLSSPVTKSFNRGEC
[1]
  Cytokine Release Assay (TNFα) Donor 0 EC50: 0.165 nM
  Cytokine Release Assay (TNFα) Donor 0 gMFI max: 48300 gMFI
  Cytokine Release Assay (TNFα) Donor 1 gMFI max: 5610 gMFI
  Cytokine Release Assay (TNFα) Donor 2 EC50: 0.0832 nM
  Cytokine Release Assay (TNFα) Donor 2 gMFI max: 15800 gMFI
  Cytokine Release Assay (TNFα) Donor 3 EC50: 0.222 nM
  Cytokine Release Assay (TNFα) Donor 3 gMFI max: 31600 gMFI
[2]
  Cytokine Release Assay (IL2) Donor 0 EC50: 0.18 nM
  Cytokine Release Assay (IL2) Donor 0 gMFI max: 69200 gMFI
  Cytokine Release Assay (IL2) Donor 1 EC50: 0.437 nM
  Cytokine Release Assay (IL2) Donor 1 gMFI max: 26800 gMFI
  Cytokine Release Assay (IL2) Donor 2 EC50: 0.141 nM
  Cytokine Release Assay (IL2) Donor 2 gMFI max: 34800 gMFI
  Cytokine Release Assay (IL2) Donor 3 EC50: 0.181 nM
  Cytokine Release Assay (IL2) Donor 3 gMFI max: 104000 gMFI

B3: CD3 × CD33-BspAb116 (bispecific antibody)
chain 1: NFMLTQPHSVSESPGKTVTISCTRSSGSIASNYVQWYQQRPGSSPTTVIYEDNQRPSGVPDRFSGSIDSSSNSASLTISGLKTEDEAYYYCQSFDSSNRVFGCGTKLTVLGGGGSGGGGSGGGGSGGGGSQVQLQESGPGLVKPSQTLSLTCTVSGGSISSGGYYWSWIRQHPGKCLEWIGYIYYSGSTYYNPSLKSRVTISVDTSKDQFSLKLSSVTAADTAVYYCARERKTSLPFDIWGQGTMVTVSSDKTHTCPPCPAPEFEGGPSVFLFPPKPKDTLMISRTPEVTCVVVDVSHEDPEVKFNWYVDGVEVHNAKTKPREEQYNSTYRVVSVLTVLHQDWLNGKEYKCKVSNKALPASIEKTISKAKGQPREPQVYTLPPCREEMTKNQVSLWCLVKGFYPSDIAVEWESNGQPENNYKTTPPVLDSDGSFFLYSKLTVDKSRWQQGNVFSCSVMHEALHNHYTQKSLSLSPGK
chain 2: EVQLVQSGAEVKKPGSSVKVSCKASGYTITDSNIHWVRQAPGQSLEWIGYIYPYNGGTDYNQKFKNRATLTVDNPTNTAYMELSSLRSEDTAFYYCVNGNPWLAYWGQGTLVTVSSASTKGPSVFPLAPSSKSTSGGTAALGCLVKDYFPEPVTVSWNSGALTSGVHTFPAVLQSSGLYSLSSVVTVPSSSLGTQTYICNVNHKPSNTKVDKRVEPKSCDKTHTCPPCPAPEFEGGPSVFLFPPKPKDTLMISRTPEVTCVVVDVSHEDPEVKFNWYVDGVEVHNAKTKPREEQYNSTYRVVSVLTVLHQDWLNGKEYKCKVSNKALPASIEKTISKAKGQPREPQVCTLPPSREEMTKNQVSLSCAVKGFYPSDIAVEWESNGQPENNYKTTPPVLDSDGSFFLVSKLTVDKSRWQQGNVFSCSVMHEALHNRFTQKSLSLSPGK
chain 3: DIQLTQSPSTLSASVGDRVTITCRASESLDNYGIRFLTWFQQKPGKAPKLLMYAASNQGSGVPSRFSGSGSGTEFTLTISSLQPDDFATYYCQQTKEVPWSFGQGTKVEVKRTVAAPSVFIFPPSDEQLKSGTASVVCLLNNFYPREAKVQWKVDNALQSGNSQESVTEQDSKDSTYSLSSTLTLSKADYEKHKVYACEVTHQGLSSPVTKSFNRGEC
[1]
  Cytokine Release Assay (TNFα) Donor 0 EC50: 0.61 nM
  Cytokine Release Assay (TNFα) Donor 0 gMFI max: 18000 gMFI
  Cytokine Release Assay (TNFα) Donor 1 gMFI max: 4930 gMFI
  Cytokine Release Assay (TNFα) Donor 2 EC50: 0.155 nM
  Cytokine Release Assay (TNFα) Donor 2 gMFI max: 9080 gMFI
  Cytokine Release Assay (TNFα) Donor 3 EC50: 0.685 nM
  Cytokine Release Assay (TNFα) Donor 3 gMFI max: 13600 gMFI
[2]
  Cytokine Release Assay (IL2) Donor 0 EC50: 0.45 nM
  Cytokine Release Assay (IL2) Donor 0 gMFI max: 23200 gMFI
  Cytokine Release Assay (IL2) Donor 1 EC50: 0.384 nM
  Cytokine Release Assay (IL2) Donor 1 gMFI max: 19000 gMFI
  Cytokine Release Assay (IL2) Donor 2 EC50: 0.0909 nM
  Cytokine Release Assay (IL2) Donor 2 gMFI max: 16800 gMFI
  Cytokine Release Assay (IL2) Donor 3 EC50: 0.198 nM
  Cytokine Release Assay (IL2) Donor 3 gMFI max: 27200 gMFI
